Reference: paper PMC11079029, “Intramolecular autoinhibition regulates the selectivity of PRPF40A tandem WW domains for proline-rich motifs” (Nature Communications, 2024)

What was measured:
Experiment in all cases: ITC; PRPF40A construct (WW12, N-ext-WW12 or its mutant) in the cell, GB1-SF1 or GB1-SF3A1 construct in the syringe (as shown in Supplementary Figures 16 and 21); 25 °C, 20 mM sodium phosphate pH 6.5, 100 mM NaCl; one-site binding model; at least duplicates; affinities apparent
Details in all cases: both partners purified
[1] = target: T1, GB1-SF1 Pro BCD (residues 468-639) (UniProt Q15637 468-639)
T1 construct: splicing factor 1 (SF1), residues 468-639; His6-GB1-TEV site cassette of the pET24 vector, not cleaved; source: E. coli BL21(DE3), purified (Ni-NTA, SEC); not shown: GB1, N-terminal, kept
T1 sequence (looked up): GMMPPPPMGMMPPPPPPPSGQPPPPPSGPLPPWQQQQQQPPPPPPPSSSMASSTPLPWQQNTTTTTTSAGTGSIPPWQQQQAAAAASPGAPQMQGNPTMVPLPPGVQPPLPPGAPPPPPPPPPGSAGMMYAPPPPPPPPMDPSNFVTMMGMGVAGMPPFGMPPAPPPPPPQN

[2] = target: T2, GB1-SF1 Pro BC (residues 468-594) (UniProt Q15637 468-594)
T2 construct: splicing factor 1 (SF1), residues 468-594; His6-GB1-TEV site cassette of the pET24 vector, not cleaved; also called SF1 BC; source: E. coli BL21(DE3), purified (Ni-NTA, SEC); not shown: GB1, N-terminal, kept
T2 sequence (looked up): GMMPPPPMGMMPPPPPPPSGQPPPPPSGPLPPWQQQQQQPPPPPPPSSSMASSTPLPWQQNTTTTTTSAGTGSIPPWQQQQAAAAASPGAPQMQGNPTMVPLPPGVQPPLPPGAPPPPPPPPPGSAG

[3] = target: T3, GB1-SF3A1 C-ter Pro (residues 552-683) (UniProt Q15459 552-683)
T3 construct: His6-GB1-TEV site cassette of the pET24 vector, not cleaved; source: E. coli BL21(DE3), purified (Ni-NTA, SEC); not shown: GB1, N-terminal, kept
T3 sequence (looked up): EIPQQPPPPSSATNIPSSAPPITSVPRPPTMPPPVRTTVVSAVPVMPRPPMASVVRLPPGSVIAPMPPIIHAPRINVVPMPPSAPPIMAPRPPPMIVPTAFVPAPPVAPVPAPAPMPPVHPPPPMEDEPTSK

[4] = target: T4, GB1-SF1 Pro ABCD (residues 410-639) (UniProt Q15637 410-639)
T4 construct: splicing factor 1 (SF1), residues 410-639, the complete proline-rich C-terminal region; His6-GB1-TEV site cassette of the pET24 vector, not cleaved; source: E. coli BL21(DE3), purified (Ni-NTA, SEC); not shown: GB1, N-terminal, kept
T4 sequence (looked up): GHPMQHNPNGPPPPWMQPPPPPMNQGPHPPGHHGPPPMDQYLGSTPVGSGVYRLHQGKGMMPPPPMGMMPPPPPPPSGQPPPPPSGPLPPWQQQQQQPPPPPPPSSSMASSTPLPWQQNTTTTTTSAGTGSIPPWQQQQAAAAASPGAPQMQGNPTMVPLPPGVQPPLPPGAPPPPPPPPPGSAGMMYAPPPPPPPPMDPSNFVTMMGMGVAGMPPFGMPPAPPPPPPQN

[5] = target: T5, GB1-SF1 Pro CD (residues 539-639) (UniProt Q15637 539-639)
T5 construct: splicing factor 1 (SF1), residues 539-639; His6-GB1-TEV site cassette of the pET24 vector, not cleaved; source: E. coli BL21(DE3), purified (Ni-NTA, SEC); not shown: GB1, N-terminal, kept
T5 sequence (looked up): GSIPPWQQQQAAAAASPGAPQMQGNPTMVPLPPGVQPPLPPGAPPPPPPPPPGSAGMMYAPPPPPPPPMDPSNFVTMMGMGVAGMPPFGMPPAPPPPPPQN

B1: PRPF40A WW12 (tandem WW domains, residues 141-236) (domain or fragment, human, UniProt O75400 141-236, looked up)
chain: GAKSMWTEHKSPDGRTYYYNTETKQSTWEKPDDLKTPAEQLLSKCPWKEYKSDSGKPYYYNSQTKESRWAKPKELEDLEGYQNTIVAGSLITKSNL
notes: A few vector residues probably remain at the N-terminus after TEV cleavage (pETM11, NcoI site); 15N-labelled in the NMR experiments; also called PRPF40A WW tandem; WW12 wt; source: E. coli BL21(DE3), purified (Ni-NTA, TEV digestion, reverse Ni-NTA, SEC); not shown: His6, N-terminal, cleaved
[1]
  Kd: 3.65 ± 0.71 µM
[2]
  Kd: 6.83 ± 2.33 µM
[3]
  Kd: 19.3 ± 4.5 µM
[4]
  Kd: 4.91 ± 0.51 µM
[5]
  Kd: 3.8 ± 0.69 µM
